Test results taken from article PMC6451128, “Structural and functional analysis of the nucleotide and DNA binding activities of the human PIF1 helicase”.
Where a chain is given by its changes, count along the chain named.

What was measured:
Settings in all cases: protein: recombinant; tags: His tag removed, GSRM left; label: 5' 32P (PNK)
hPIF1HD K556A = target: T1, hPIF1HD K556A (human, UniProt Q9H611 206-620, K556A); assay: EMSA; no nucleotide; greatest defect; 20 mM HEPES-NaOH pH 7.5 (Results say pH 7.2), 135 mM NaCl, 5% glycerol, 1 mM DTT, 1 mg/ml BSA, 20 min at 20 C; 0.4 nM T(35); G4 assay: 0.1 nM G4 DNA, 2% PEG 8000 instead of glycerol, 5 uM T(35) competitor
T1 sequence: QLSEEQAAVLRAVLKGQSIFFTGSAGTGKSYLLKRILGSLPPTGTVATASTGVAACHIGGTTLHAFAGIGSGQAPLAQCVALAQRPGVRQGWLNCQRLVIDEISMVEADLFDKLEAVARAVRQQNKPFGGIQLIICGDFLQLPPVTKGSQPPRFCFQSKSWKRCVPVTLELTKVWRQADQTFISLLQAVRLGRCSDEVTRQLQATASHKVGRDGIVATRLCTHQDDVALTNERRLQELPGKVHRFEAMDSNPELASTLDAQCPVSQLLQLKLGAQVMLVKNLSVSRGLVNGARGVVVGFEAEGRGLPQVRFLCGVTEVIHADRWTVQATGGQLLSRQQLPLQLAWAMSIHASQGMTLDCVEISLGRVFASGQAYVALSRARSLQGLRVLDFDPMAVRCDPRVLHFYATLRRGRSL

hPIF1HD N495A = target: T2, hPIF1HD N495A (human, UniProt Q9H611 206-620, N495A); assay: EMSA; no nucleotide; 20 mM HEPES-NaOH pH 7.5 (Results say pH 7.2), 135 mM NaCl, 5% glycerol, 1 mM DTT, 1 mg/ml BSA, 20 min at 20 C; 0.4 nM T(35); G4 assay: 0.1 nM G4 DNA, 2% PEG 8000 instead of glycerol, 5 uM T(35) competitor
T2 sequence: T1 sequence with N290A, A351K

hPIF1HD F573A = target: T3, hPIF1HD F573A (human, UniProt Q9H611 206-620, F573A); assay: as above
T3 sequence: T1 sequence with A351K, F368A

Measured: binding signal

B1: poly-T(35) (ssDNA)
DNA: TTTTTTTTTTTTTTTTTTTTTTTTTTTTTTTTTTT
> 50 fold decrease in affinity vs WT: all assays above
